This data set has as its system Escherichia coli TOP10. The data set is described as follows: shrunken log2 fold change of peptide-encoding DNA abundance (4.5 h post-induction vs induction); higher = less antimicrobial activity (less host growth inhibition). The settings on record: time post-induction: 4.5 h; library: site-saturation at positions 5, 18, 19, 20.
As to RRIRMRPPRLPRPRPRPPSGPRP, the “shrunken log2 fold change” value turned out to be 0.525. The value for RRIRPRPPRLPRPRPRPEFQPRP was 0.0778; that for RRIRNRPPRLPRPRPRPKVIPRP was -0.264.

Take RRIRHRPPRLPRPRPRPEQHPRP: the “shrunken log2 fold change” value worked out at 1.73. In the case of RRIRERPPRLPRPRPRPRKKPRP, the “shrunken log2 fold change” value is -0.111. The value for RRIRRRPPRLPRPRPRPRSPPRP was 0.49. The value for RRIRFRPPRLPRPRPRPQGNPRP was 0.311.

Regarding RRIRMRPPRLPRPRPRPWHKPRP, the “shrunken log2 fold change” value was -0.00776.

For the sequence RRIRYRPPRLPRPRPRPNPEPRP, the “shrunken log2 fold change” value is -0.0105. The value for RRIRVRPPRLPRPRPRPFRQPRP was 0.0805; that for RRIRARPPRLPRPRPRPIEDPRP was -0.0663. Consider RRIRQRPPRLPRPRPRPAHKPRP, for which the “shrunken log2 fold change” value is -0.0849. As for RRIRFRPPRLPRPRPRPHGTPRP, the figure is -0.134; as for RRIRARPPRLPRPRPRPMDGPRP, 0.211. The value for RRIRRRPPRLPRPRPRPVVCPRP was 0.0897; that for RRIRGRPPRLPRPRPRPEFKPRP was 0.741; that for RRIRVRPPRLPRPRPRPQDYPRP was -0.125.

As to RRIRTRPPRLPRPRPRPWFGPRP, the “shrunken log2 fold change” value was 0.0864. Turning to RRIRVRPPRLPRPRPRPMEMPRP, the “shrunken log2 fold change” value is -0.0249. As for RRIRARPPRLPRPRPRPDEPPRP, the figure is 0.0489; as for RRIRSRPPRLPRPRPRPRRMPRP, 0.141; as for RRIRKRPPRLPRPRPRPDVKPRP, -0.0302. In the case of RRIRKRPPRLPRPRPRPPSRPRP, the “shrunken log2 fold change” value amounted to 0.772. For RRIRSRPPRLPRPRPRPISQPRP, the “shrunken log2 fold change” value is -0.387. The value for RRIRFRPPRLPRPRPRPPYHPRP was -0.454. Turning to RRIRIRPPRLPRPRPRPQKVPRP, the “shrunken log2 fold change” value was -0.102.

On to RRIRSRPPRLPRPRPRPTQQPRP, for which the “shrunken log2 fold change” value was 0.138.

As for RRIRSRPPRLPRPRPRPAIDPRP, the “shrunken log2 fold change” value is -0.0382. With RRIRYRPPRLPRPRPRPATKPRP, the “shrunken log2 fold change” value was determined as 0.171.

As to RRIRQRPPRLPRPRPRPPYEPRP, the “shrunken log2 fold change” value was -0.114. As for RRIRGRPPRLPRPRPRPIKKPRP, the figure is 0.00565; as for RRIRERPPRLPRPRPRPPCYPRP, -0.396; as for RRIRERPPRLPRPRPRPCFSPRP, -0.0538. The value for RRIRVRPPRLPRPRPRPRPCPRP was 0.322; that for RRIRWRPPRLPRPRPRPSILPRP was -0.341. The value for RRIRARPPRLPRPRPRPCFMPRP was -0.0304; that for RRIRMRPPRLPRPRPRPQWVPRP was 0.0772; that for RRIRYRPPRLPRPRPRPMCLPRP was -0.0113. With RRIRQRPPRLPRPRPRPKTFPRP, the “shrunken log2 fold change” value was -0.259. In the case of RRIRCRPPRLPRPRPRPCKSPRP, the “shrunken log2 fold change” value is -0.0591.

As for RRIRGRPPRLPRPRPRPWRNPRP, the “shrunken log2 fold change” value came out at 0.297. The value for RRIRCRPPRLPRPRPRPQVQPRP was 0.0244; that for RRIRWRPPRLPRPRPRPQKIPRP was -0.178. For the sequence RRIRYRPPRLPRPRPRPMIKPRP, the “shrunken log2 fold change” value was found to be 0.0227.

In the case of RRIRRRPPRLPRPRPRPNQTPRP, the “shrunken log2 fold change” value worked out at 0.0193. The value for RRIRSRPPRLPRPRPRPIWVPRP was 0.0576; that for RRIRKRPPRLPRPRPRPGLMPRP was 0.343; that for RRIRCRPPRLPRPRPRPNIRPRP was -0.517.

Consider RRIRSRPPRLPRPRPRPYVTPRP, for which the “shrunken log2 fold change” value is -0.266.

Regarding RRIRARPPRLPRPRPRPMTVPRP, the “shrunken log2 fold change” value was -0.0938.

For RRIRNRPPRLPRPRPRPDDQPRP, the “shrunken log2 fold change” value came out at 0.0463. For RRIRWRPPRLPRPRPRPQWGPRP, the “shrunken log2 fold change” value stood at 0.293. As for RRIRHRPPRLPRPRPRPRCDPRP, the figure is 0.128. The value for RRIRERPPRLPRPRPRPQYWPRP was -0.617; that for RRIRARPPRLPRPRPRPPRDPRP was 1.04; that for RRIRQRPPRLPRPRPRPKPMPRP was 0.382. The value for RRIRCRPPRLPRPRPRPWHDPRP was -0.142.

Regarding RRIRWRPPRLPRPRPRPDYSPRP, the “shrunken log2 fold change” value was -0.106. As for RRIRGRPPRLPRPRPRPSNRPRP, the figure is 0.113; as for RRIRLRPPRLPRPRPRPAQQPRP, 0.0982. As for RRIRSRPPRLPRPRPRPANIPRP, the figure is -0.484; as for RRIRFRPPRLPRPRPRPSGQPRP, -0.204.

For the origin of these results see the supplement of paper PMC9112550, “Optimization of the antimicrobial peptide Bac7 by deep mutational scanning” (BMC Biology, 2022).
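Further: peptides expressed intracellularly from a pBAD plasmid library in pooled LB shake-flask culture, induced with 0.3% L-arabinose, DNA abundance read by NGS, three biological replicates, DESeq2 with apeglm shrinkage.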
